Publication PMC2877007

Molecular target: Epidermal Growth Factor Receptor (EGFR) (human (endogenous in A431)) (UniProt P00533)
Test: parameter fitting of an ODE model (PottersWheel) and a stochastic simulation (SPS) to immunogold electron microscopy counts; estimated constants; adaptor immunogold label on plasma membrane sheets of A431 cells over a time course of EGF, 20 nM EGF in the model; docking rate multiplied by a scaling factor f and adjusted to match the data

In the case of “Stat5 (from UniProt P42229 1-794) (natural protein)”, the Kd is reported as 2.13 µM, the koff is reported as 11.7 s⁻¹ and the kon is reported as 5.5e+06 M⁻¹ s⁻¹.
